Fold diff data for 1 molecule are collected here from US20220332804A1 (CSL INNOVATION, published 2022).

Holding throughout (test): SPR; KD relative to WT C2;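 also: biacore SPR at 37 °C, anti-C2 mAbs captured on an anti-human IgG chip, alanine or serine C2 surface mutants tested, KD from 1:1 fit compared with wild-type C2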
(In SPR one partner is held on a chip, and binding of the other changes the refractive index at the surface.)

Assay [1] concerns the target T1, human C2 Q447A (human, UniProt P06681 21-752).
T1 sequence: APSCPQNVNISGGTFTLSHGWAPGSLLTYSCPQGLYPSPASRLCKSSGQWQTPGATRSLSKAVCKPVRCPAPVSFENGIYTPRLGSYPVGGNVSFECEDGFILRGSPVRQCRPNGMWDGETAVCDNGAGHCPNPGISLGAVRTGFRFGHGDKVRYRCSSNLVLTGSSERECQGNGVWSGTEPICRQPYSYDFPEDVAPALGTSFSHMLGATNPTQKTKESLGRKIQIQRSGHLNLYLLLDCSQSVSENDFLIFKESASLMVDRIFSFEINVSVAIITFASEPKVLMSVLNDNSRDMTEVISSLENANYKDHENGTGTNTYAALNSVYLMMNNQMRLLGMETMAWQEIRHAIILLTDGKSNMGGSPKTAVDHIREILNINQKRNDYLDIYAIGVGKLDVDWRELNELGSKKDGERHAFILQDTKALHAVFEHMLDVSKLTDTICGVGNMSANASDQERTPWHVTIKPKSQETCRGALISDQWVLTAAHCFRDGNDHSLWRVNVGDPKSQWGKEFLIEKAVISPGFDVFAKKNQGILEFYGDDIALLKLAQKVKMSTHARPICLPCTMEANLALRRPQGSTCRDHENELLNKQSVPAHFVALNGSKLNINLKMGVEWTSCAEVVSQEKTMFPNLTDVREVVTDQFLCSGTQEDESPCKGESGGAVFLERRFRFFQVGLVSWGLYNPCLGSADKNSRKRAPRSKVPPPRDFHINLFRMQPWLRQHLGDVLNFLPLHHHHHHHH

For assay [2], the target named is T2, human C2 V455A (human, UniProt P06681 21-752).
T2 sequence: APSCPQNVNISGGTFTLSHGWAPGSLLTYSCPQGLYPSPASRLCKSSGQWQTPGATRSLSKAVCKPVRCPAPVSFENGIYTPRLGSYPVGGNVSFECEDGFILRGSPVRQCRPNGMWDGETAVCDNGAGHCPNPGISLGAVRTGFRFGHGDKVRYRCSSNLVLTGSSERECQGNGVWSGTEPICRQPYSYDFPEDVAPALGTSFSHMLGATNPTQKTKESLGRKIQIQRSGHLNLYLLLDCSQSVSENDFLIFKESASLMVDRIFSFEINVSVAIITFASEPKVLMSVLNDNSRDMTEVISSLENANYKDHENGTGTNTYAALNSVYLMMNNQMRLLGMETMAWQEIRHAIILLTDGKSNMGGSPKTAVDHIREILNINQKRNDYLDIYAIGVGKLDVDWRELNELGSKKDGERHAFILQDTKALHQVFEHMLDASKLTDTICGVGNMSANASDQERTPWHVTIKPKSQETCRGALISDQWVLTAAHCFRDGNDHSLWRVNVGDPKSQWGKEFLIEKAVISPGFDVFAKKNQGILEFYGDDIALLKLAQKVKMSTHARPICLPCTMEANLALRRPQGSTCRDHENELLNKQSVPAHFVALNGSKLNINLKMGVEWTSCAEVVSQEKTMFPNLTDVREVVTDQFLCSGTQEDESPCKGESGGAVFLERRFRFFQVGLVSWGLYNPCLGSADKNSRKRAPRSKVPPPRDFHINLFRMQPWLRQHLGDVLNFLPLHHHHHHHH

Assay [3] has as its target T3, human C2 N403A (human, UniProt P06681 21-752).
T3 sequence: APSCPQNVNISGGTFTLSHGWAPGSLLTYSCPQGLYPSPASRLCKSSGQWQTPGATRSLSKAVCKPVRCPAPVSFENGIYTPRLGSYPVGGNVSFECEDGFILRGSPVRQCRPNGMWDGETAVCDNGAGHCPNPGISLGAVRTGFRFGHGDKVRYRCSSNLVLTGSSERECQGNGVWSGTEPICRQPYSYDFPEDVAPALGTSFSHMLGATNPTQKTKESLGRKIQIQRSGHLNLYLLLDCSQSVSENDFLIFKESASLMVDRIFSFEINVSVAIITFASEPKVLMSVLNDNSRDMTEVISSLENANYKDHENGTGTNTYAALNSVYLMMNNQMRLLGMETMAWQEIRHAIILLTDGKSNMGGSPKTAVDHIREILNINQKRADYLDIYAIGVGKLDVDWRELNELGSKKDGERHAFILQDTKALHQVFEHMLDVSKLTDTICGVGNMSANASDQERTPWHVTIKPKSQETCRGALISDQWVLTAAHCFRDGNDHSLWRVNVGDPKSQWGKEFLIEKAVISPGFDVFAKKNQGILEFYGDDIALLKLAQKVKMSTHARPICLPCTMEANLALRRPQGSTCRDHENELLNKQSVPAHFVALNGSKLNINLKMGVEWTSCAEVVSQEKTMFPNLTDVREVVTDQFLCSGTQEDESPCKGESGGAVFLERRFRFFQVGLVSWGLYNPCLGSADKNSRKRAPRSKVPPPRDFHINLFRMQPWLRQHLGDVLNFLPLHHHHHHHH

For assay [4], the target named is T4, human C2 R493A (human, UniProt P06681 21-752).
T4 sequence: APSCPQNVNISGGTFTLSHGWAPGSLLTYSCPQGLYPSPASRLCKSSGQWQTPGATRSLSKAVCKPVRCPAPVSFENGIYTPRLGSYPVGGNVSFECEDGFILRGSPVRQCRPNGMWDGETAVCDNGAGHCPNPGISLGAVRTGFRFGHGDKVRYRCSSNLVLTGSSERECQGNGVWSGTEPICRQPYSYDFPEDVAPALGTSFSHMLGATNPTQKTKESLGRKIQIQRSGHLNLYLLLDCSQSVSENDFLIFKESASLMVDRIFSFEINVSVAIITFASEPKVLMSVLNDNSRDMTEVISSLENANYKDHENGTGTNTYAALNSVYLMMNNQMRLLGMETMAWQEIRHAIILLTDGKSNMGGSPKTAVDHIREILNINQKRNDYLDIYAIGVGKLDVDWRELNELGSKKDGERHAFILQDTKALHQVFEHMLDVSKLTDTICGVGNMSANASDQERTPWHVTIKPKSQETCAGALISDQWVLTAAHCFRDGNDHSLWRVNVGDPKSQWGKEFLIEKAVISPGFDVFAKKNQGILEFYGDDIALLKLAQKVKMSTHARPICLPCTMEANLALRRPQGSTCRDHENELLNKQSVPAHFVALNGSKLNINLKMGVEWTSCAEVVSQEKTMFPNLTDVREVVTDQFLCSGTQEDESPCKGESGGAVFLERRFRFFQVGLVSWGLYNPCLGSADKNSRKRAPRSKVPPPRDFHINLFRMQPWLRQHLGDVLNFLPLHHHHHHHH

B1: RF16-214 (antibody, V domains shown)
VH: EVQLLESGGGLVQPGGSLRLSCAASGFTFSWYQMMWVRQAPGKGLEWVSRIYPSGGGTAYADSVKGRFTISRDNSKNTLYLQMNSLRAEDTAVYYCARDAGYGDNWGQGTLVTVSS
VL: QSALTQPPSVSVSPGQTASITCSGDKLGEKYASWYQQKAGQSPVMVIYQDRKRPSGIPERFSGSNSGNTATLTISGTQAMDEADYYCQAWDTRAVVFGGGTKLTVLG
In the case of B1, the Fold diff in assay [1] turned out to be 4 fold; in assay [2] it was 0 fold; in assay [3], 1 fold; in assay [4], 1 fold.
